Assays:
[1] = molecular target: T1, recombinant His-tagged AGO2 protein (human Argonaute 2, baculovirus-expressed) (human), Q9UKV8
[2] = molecular target: T1, recombinant His-tagged AGO2 protein …; assay: TAT-11 peptide
[3] = molecular target: T1, recombinant His-tagged AGO2 protein …; assay: TAT-26 peptide

T1 sequence (Q9UKV8 other isoform, or with tags, fused parts or gaps limits assumed): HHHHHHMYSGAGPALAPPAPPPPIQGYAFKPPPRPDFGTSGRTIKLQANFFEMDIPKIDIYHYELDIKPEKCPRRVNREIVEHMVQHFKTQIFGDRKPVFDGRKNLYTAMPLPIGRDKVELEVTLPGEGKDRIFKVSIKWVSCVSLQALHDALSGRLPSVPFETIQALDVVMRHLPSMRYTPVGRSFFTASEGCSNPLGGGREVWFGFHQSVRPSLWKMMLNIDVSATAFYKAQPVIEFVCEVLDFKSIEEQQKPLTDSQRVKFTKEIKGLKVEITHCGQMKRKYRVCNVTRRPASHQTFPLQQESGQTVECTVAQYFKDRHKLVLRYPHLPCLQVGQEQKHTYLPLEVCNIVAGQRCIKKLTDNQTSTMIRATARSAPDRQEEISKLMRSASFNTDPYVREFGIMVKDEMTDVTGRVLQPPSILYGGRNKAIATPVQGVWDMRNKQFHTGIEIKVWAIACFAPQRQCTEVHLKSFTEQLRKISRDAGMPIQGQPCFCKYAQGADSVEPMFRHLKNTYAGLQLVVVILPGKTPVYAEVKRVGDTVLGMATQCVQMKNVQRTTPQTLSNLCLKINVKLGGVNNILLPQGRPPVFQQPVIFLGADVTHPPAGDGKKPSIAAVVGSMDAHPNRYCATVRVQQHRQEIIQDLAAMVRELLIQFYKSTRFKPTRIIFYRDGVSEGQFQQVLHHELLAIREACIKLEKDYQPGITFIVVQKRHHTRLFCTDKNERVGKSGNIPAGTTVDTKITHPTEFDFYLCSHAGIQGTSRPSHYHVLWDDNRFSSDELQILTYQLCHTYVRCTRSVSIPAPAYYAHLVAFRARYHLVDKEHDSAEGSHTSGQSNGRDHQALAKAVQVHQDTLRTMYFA

Binder: YQFPEFRVERTPLPSGRKKRRQRRRPPQ (modifications not checked) [TAT-11 decoy peptide (MSI1 peptide 11 with HIV-1 Tat (48-60) cell-penetrating peptide)]
- koff [1]: 0.00274 s⁻¹
- kon [1]: 823 M⁻¹ s⁻¹
- Kd [2]: 3.33 µM

Binder: HSLGGPLIATAFTNGGRKKRRQRRRPPQ (modifications not checked) [TAT-26 decoy peptide (MSI1 peptide 26 with HIV-1 Tat (48-60) cell-penetrating peptide)]
- koff [1]: 0.00226 s⁻¹
- kon [1]: 488 M⁻¹ s⁻¹
- Kd [3]: 4.63 µM

Reference: patent US20200078441A1
